In patent US20220339270A1 one finds OD450-570 data, which are given here for one molecule.

The target of assay [1] is Phospho_Tau441 (Tau441 phosphorylated in vitro by DYRK1A) (human), P10636. Nature of the assay: ELISA, PT3 immobilized, tau protein applied at 333 ng/mL. The following applies: remark: other sources report otherwise. (An ELISA detects its analyte on a solid surface through an enzyme-linked reagent.)
Assay [2] concerns the target Tau441 (recombinant, not phosphorylated) (human), P10636. Described as above. The following applies: remark: other sources report otherwise.

Chain of Tau441 (recombinant, not phosphorylated) (human), P10636 (P10636 other isoform, or with tags, fused parts or gaps limits assumed): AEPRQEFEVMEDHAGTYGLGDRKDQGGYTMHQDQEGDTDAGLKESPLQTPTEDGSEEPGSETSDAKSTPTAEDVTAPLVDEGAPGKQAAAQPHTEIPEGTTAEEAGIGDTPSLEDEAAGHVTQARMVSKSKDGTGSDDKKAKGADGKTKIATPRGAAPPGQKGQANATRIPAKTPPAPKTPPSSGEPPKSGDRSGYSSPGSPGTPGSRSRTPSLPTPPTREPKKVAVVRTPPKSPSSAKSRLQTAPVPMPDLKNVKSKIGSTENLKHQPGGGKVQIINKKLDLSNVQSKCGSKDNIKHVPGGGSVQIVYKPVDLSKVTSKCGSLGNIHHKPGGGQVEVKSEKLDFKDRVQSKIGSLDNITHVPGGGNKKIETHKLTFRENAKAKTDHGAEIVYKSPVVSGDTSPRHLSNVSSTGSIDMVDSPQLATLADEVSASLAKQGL
Chain of Phospho_Tau441 (Tau441 phosphorylated in vitro by DYRK1A) (human), P10636 (P10636 other isoform, or with tags, fused parts or gaps limits assumed): as above

B1: anti-tau antibody PT3 (antibody, V domains shown)
VH: EVKLVESGGDLVKPGGSLKLSCAASGFTFSSYAMSWVRQNPEKRLEWVASISKGGNTYYPNSVKGRFTISRDNARNILYLQMSSLRSEDTALYYCARGWGDYGWFAYWGQVTLVTVSA
VL: DIKMTQSPSSMYASLGERVTITCKASQDINRYLNWFQQKPGKSPKTLIYRANRLLDGVPSRFSGSGSGQDYSLTISSLDYEDMGIYYCLQYDEFPLTFGDGTKLELK
On to B1, for which the figures for the OD450-570 in assay [1] and in assay [2] were 0.5 and 0, respectively.
